Consider 16 molecules from article PMC5732184, “Arabidopsis Basic Helix-Loop-Helix 34 (bHLH34) Is Involved in Glucose Signaling through Binding to a GAGA Cis-Element”.

The labels stand for the following.
T1: His-bHLH34 (Arabidopsis thaliana) (UniProt Q9LTC7)
T1 sequence: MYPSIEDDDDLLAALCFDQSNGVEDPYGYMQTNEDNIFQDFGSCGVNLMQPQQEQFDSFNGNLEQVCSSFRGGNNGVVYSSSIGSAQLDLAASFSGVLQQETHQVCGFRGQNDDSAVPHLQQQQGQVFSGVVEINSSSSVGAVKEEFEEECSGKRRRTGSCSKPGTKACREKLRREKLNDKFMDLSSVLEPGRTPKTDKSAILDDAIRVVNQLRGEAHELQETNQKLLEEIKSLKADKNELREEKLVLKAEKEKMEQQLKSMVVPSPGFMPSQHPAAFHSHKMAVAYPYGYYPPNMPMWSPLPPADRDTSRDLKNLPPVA

T2: His-bHLH34 (Arabidopsis thaliana, UniProt Q9LTC7 1-320)
T2 sequence: T1 sequence

B1: DBE1 m3 (dsDNA)
DNA 1: AGAAGATACGGC
DNA 2: GCCGTATCTTCT
B2: DBE2 (dsDNA)
DNA 1: CCAGGAGAGGTT
DNA 2: AACCTCTCCTGG
B3: DBE4 (dsDNA)
DNA 1: CTTAGAGAGGAG
DNA 2: CTCCTCTCTAAG
B4: DBE6 (dsDNA)
DNA 1: GAGGGAGATTCA
DNA 2: TGAATCTCCCTC
B5: DBE1 m1 (dsDNA)
DNA 1: AGAATAGACGGC
DNA 2: GCCGTCTATTCT
B6: DBE3 (dsDNA)
DNA 1: AAATGAGAGGAT
DNA 2: ATCCTCTCATTT
B7: E-box (dsDNA)
DNA 1: CCGGCCACTTGTGCCA
DNA 2: TGGCACAAGTGGCCGG
B8: DBE1 m4 (dsDNA)
DNA 1: AGAAGAGTCGGC
DNA 2: GCCGACTCTTCT
B9: DBE5 (dsDNA)
DNA 1: AAATGAGATCAT
DNA 2: ATGATCTCATTT
B10: DBE1 m2 (dsDNA)
DNA 1: AGAAGTGACGGC
DNA 2: GCCGTCACTTCT
B11: DBE1 (dsDNA)
DNA 1: AGAAGAGACGGC
DNA 2: GCCGTCTCTTCT
B12: DBE1 unlabeled competitor (dsDNA)
DNA 1: AGAAGAGACGGC
DNA 2: GCCGTCTCTTCT

The target of one data set is T1, His-bHLH34 (Arabidopsis thaliana). In words: EMSA. Particulars: 10 mM Tris-HCl pH 7.5, 50 mM KCl, 1 mM EDTA, 1 mM DTT, 2.5% glycerol, 1 ug poly(dI-dC), 100 ng protein, 0.3 pmol DNA in 20 uL; 25 C 20 min; 5% native PAGE in ….
On to “GTGATGGAGGTGTGACGCTAAGCCCTGAGCAGCACAAGGAGGTGGCACAAGTGGCCGGAGAGCTTCAAAAGTACTGTGTCAAGGAGCCTGTCAAAAATCCTCTCATTTTTGGAGGTAAAAGTGTAAGAACCTAGCTGCCA (double strand) [P2 fragment (-874 to -735)]”, for which the binding result is “binds”. As for “GAAGAAGAGACGGCCTATCACGCTTCTGTAGCCTCCACCAGGAGAGGTTGGTCTAGAACAGTACACCACTTCCCAATCTGCACCAAATCCCACAAGTTCACATATTGATCCAAGGAAGAAGCAA (double strand) [P1 fragment (-999 to -875)]”, the binding result is recorded as “binds”.

As to “TATTCGCAACCTATTCACAATTCACAAACTTTCAAATAAATGCGCCAAACTAAGTCAGATCCTCAAGATCGGTGTATACAAATCAGAAATCGTTACACAACCTTAGAGAGGAGGGTAGAAATGAGATCATCAGGTCCAGT (double strand) [P3 fragment (-734 to -595)]”, the binding entry was “binds”. “AACCACGGACTCAGATCCATTCCTCGAGACGTTTGAATCTCCCTCTTCAATATTCAATCCCGTACAAGGTGTTACGGAGTAGGAGTAGAAGATTAGGACTCGTCGTCAGTTCTGTTTCAGCTCCCAACGTTGAGCTCCGT (double strand) [P4 fragment (-594 to -456)]”: the binding result is “binds”.

The target in a further data set is T2, His-bHLH34. Description: EMSA; 10 mM Tris-HCl pH 7.5, 50 mM KCl, 1 mM EDTA, 1 mM DTT, 2.5% glycerol, 1 ug poly(dI-dC), 100 ng protein, 0.3 pmol DNA in 20 uL; 25 C 20 min; 5% native PAGE in TBE at 4 C. Particulars: protein: recombinant; tags: His tag (pET300/NT-DEST); chain copies: 2; label: 32P; blunt.
Regarding B1, the binding result is listed as “no binding”. On the same count and under the same terms, for B2 the value was “binds”. Still for that read-out and setting: with B3 the entry was “binds”.

In the case of B4, the binding result is listed as “binds”. Still for that read-out and setting: for B5 the value was “no binding”. Same read-out and setting: for B6 the value was “binds”; for B7, “binds”.

As for B8, the binding result is listed as “no binding”.

With B9, the binding result is recorded as “binds”. For the molecule B10, the binding result is “no binding”.

For B11, the binding result is reported as “binds”.

Another data set deals with T2, His-bHLH34. Description: competition; 10-100x excess against 32P-DBE1; 10 mM Tris-HCl pH 7.5, 50 mM KCl, 1 mM EDTA, 1 mM DTT, 2.5% glycerol, 1 ug poly(dI-dC), 100 ng protein, 0.3 pmol DNA in 20 uL; 25 C 20 min; 5% native PAGE in TBE at 4 C. Particulars: protein: recombinant; tags: His tag (pET300/NT-DEST); chain copies: 2; blunt.
Turning to B12, the binding result is “binds”.
